According to doi:10.1101/2022.02.17.480956 (bioRxiv, 2022):
Each block holds one binder with its values, some of them ahead of it.

Experiments:
COUP-TFII;NKX2-1 = biological target: T1, COUP-TFII;NKX2-1 (mouse;, UniProt P43135;P50220 1-414;1-372, |); test: EMSA
T1 sequence 1: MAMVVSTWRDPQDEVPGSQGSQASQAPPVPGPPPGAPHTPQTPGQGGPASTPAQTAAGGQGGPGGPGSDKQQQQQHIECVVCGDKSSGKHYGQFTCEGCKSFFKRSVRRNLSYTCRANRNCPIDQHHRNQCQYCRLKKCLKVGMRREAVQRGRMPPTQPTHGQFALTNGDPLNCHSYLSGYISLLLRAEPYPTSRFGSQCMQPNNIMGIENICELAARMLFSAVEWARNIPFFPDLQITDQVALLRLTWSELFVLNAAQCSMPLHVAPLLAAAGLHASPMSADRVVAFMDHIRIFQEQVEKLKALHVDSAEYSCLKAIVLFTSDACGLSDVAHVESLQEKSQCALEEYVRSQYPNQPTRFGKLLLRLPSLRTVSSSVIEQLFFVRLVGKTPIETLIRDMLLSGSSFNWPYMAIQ
T1 sequence 2: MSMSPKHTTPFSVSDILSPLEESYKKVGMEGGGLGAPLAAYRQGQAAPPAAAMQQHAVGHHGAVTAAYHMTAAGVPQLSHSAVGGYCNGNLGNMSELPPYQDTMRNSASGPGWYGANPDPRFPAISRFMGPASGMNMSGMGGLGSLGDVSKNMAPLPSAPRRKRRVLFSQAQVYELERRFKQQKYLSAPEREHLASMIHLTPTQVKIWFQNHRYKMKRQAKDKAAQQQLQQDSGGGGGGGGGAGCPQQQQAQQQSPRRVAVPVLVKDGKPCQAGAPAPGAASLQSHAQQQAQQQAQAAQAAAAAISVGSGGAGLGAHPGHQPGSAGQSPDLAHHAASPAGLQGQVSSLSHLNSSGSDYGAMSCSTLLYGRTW

COUP-TFII-GST [1] = biological target: T2, COUP-TFII-GST (mouse, UniProt P43135 1-414); test: EMSA
T2 sequence: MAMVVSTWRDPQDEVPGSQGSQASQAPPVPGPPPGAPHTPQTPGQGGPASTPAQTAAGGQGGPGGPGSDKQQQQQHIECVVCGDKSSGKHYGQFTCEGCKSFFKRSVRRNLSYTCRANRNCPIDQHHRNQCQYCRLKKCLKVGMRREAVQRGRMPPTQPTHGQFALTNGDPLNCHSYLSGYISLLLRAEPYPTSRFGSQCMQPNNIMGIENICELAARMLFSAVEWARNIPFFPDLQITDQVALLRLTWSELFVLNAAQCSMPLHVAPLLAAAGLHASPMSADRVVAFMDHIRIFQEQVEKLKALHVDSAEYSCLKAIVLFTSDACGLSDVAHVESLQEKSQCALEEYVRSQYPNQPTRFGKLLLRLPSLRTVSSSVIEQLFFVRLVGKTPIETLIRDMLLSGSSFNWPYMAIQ

[2] = biological target: T3, recombinant COUP-TFII (construct not told for this experiment) (mouse, UniProt P43135 1-414); test: native gel or EMSA
T3 sequence (looked up): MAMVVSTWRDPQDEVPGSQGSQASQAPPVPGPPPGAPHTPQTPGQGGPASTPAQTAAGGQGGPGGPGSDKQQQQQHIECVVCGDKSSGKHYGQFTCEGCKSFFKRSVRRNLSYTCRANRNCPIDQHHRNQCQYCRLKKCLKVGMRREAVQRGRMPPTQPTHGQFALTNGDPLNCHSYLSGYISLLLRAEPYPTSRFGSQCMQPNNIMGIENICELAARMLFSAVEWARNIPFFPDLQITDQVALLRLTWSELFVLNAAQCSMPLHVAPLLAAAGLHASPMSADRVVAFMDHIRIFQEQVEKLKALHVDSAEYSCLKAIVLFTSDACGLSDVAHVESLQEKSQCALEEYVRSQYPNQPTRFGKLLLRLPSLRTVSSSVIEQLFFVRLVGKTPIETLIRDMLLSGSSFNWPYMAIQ

COUP-TFII-GST [3] = biological target: T4, COUP-TFII-GST (mouse, UniProt P43135 1-414); test: native gel or EMSA
T4 sequence (looked up): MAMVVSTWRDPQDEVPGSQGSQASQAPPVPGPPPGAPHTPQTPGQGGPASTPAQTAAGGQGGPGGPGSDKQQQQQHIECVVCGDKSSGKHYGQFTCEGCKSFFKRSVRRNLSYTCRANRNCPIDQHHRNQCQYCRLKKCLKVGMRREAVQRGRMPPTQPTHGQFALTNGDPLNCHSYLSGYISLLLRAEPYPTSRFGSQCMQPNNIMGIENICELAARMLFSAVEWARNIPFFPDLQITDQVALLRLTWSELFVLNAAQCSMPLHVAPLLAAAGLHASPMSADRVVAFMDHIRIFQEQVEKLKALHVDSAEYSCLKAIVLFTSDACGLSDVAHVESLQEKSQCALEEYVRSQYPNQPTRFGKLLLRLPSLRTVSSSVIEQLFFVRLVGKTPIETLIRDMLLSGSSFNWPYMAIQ

B1: Nrp2 NCCE (dsDNA)
DNA 1: TTGCCAAATTATGTGACCTTTGGCAGACCAGCTG
DNA 2: CAGCTGGTCTGCCAAAGGTCACATAATTTGGCAA
- binding result (COUP-TFII;NKX2-1): binds

B2: CE_ΔC_AB (dsDNA)
DNA 1: CCATGCACTTGAAAAAAAATGGAAAAACACCTCC
DNA 2: GGAGGTGTTTTTCCATTTTTTTTCAAGTGCATGG
- binding result (COUP-TFII-GST [1]): no binding

- binding result [2]: binds
- binding result (COUP-TFII-GST [3]): binds
B3: recombinant NKX2-3 (natural protein, mouse, UniProt P97334 1-362, looked up)
chain: MMLPSPVTSTPFSVKDILNLEQQRHFHGAHLQAELEQHFHSAPCMLATAEGTQFSDAGEEDEEEEGEKLSYLNSLAAAEGHGDSGLCPQSYVHTVLRDACSGPKEQEEEVVSERSQKSCQLKKSLEAAGDCKTSEDGERPKPRSRRKPRVLFSQAQVFELERRFKQQRYLSAPEREHLASSLKLTSTQVKIWFQNRRYKCKRQRQDKSLELGTHAPPPPPRRVAVPVLVRDGKPCVTPSAQTYGSPYGVGAGAYSYNSFPAYGYGNSAAAAAAAAAAAAAAAAYSGSYGCAYPTGGGGGGGGTASAATTAMQPACSATGGGSFVNVSNLGGFGSGGGAQPLHQGAAAGSACTQGTLQGIRAW
